Results as given in patent US20260070975A1.

What was measured:
[1] = target: c-Kit expressed on the cell surface of M-07e cells (human) (UniProt P10721); assay: cell-based or functional assay
[2] = target: c-Kit expressed on the cell surface of M-07e cells (human) (UniProt P10721)

Sequence of c-Kit expressed on the cell surface of M-07e cells (human) (P10721 26-976): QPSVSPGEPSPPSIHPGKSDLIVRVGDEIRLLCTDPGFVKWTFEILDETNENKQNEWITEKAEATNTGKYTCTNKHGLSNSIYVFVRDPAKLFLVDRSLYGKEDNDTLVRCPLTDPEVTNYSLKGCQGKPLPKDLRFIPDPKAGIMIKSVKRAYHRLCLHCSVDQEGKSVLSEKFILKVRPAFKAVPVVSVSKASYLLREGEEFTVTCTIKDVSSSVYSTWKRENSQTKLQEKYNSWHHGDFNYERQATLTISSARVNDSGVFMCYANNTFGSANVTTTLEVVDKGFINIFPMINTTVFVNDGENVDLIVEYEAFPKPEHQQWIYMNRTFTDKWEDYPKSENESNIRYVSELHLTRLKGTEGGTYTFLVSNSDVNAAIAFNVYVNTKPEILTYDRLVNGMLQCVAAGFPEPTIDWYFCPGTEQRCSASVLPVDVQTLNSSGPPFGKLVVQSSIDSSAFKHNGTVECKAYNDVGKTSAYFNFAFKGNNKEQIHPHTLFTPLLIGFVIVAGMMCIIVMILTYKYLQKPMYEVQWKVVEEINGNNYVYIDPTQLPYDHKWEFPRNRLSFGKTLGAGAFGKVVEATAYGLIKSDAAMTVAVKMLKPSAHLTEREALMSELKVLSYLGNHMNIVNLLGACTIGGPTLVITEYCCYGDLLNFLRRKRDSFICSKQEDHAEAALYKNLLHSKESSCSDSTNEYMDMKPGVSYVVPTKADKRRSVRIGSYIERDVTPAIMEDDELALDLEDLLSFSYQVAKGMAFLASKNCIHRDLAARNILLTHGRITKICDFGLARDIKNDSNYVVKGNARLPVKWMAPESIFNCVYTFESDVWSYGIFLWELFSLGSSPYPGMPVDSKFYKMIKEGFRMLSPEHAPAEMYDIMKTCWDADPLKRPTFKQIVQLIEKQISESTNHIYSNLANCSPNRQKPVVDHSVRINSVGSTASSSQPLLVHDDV

B1: CDX-0159 (antibody, INN chains, looked up, V domains shown)
VH: QVQLVQSGAEVKKPGASVKLSCKASGYTFTDYYINWVRQAPGKGLEWIARIYPGSGNTYYNEKFKGRATLTADKSTSTAYMQLSSLRSEDTAVYFCARGVYYFDYWGQGTTVTVSS
VL: DIVMTQSPSSLSASVGDRVTITCKASQNVRTNVAWYQQKPGKAPKALIYSASYRYSGVPDRFTGSGSGTDFTLTISSLQPEDFADYFCQQYNSYPRTFGGGTKVEIK
- IC50, inhibition of SCF-dependent proliferation of M-07e cells [1]: 408 pM
- IC50 (read off the curve) [2]: 100 to 200 pM
